# Test: yeast display, Sf9 membrane polyspecificity reagent, FACS + sequencing; frameworks hold sequencing errors
# How it was run: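 Using colony PCR, genes from sorted yeast display clones were amplified, then sequenced on MiSeq at 2 × 250 and filtered by CDR length. The clones had been stained with 10% biotinylated, detergent-solubilized Sf9 membrane reagent for 1 hour at 4 °C and sorted by FACS into low and high (top ~1%) gates on anti-HA and streptavidin fluorescence. Polyreactivity labels come from the gate of origin.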
row,Sequence,polyreactivity (PSR sort gate)
1,QVQLVESGGGLVQAGGSLRLSCAASGRILVRYAMGWYRQAPGKERELVAAISSSGSSTYYADSVKGRFTISRYNAKNTVYLQMNSLKPEDTAVYYCAADWEYVFYEYGYWGQGTQVTVSS,low polyreactivity
2,QVQLVESGGGLVQAGGSLRLSCAASGRILVSYARGWYRQAPGKERELVAGITSGGDSTYYADSVKGRFTISRDNAKNTVYLQMNSLKPADTAVYSCAADRYGYRGRKNVRERYNYWGQGTQVTVSS,high polyreactivity
3,QVQLVESGGGLVQAGGSLRLSCAASGRILVVNAMGWYRQAPGKERELVAAISTTGGRTYYADSVKGRFTISRDNAKNTDYLQMISLKPEDTAVYYCAKDDGRFGRTHEHDYWGHGTQVTVSS,high polyreactivity
4,QVQLVESGGGLVQAGGSLRLSCAASGRILVVNAMGWYRQAPRKERELVAAISTTGGRTYYADSVKGRFTISRDNAKNTVYLQMKSLKPEDTAVYYCSKDDGRFGRTHEHDYWGHGTQVTVSS,high polyreactivity
5,QVQLVESGGGLVQAGGSLRLSCAASGRILWTYAMGWYRQAPGKERELVADISRTGSTNYADSVKGRFTISRDNAKNTVYLQMNSLKPEDTAVYYCNADYDRSRVYYSVELYDYWGQGTQVTVSS,low polyreactivity
6,QVQLVESGGGLVQAGGSLRLSCAASGRILWYNAMGWYRQAPGKERELVAAINRGVSTNYADSVKGRFTISRDNAKNTVYLQMNSLKPEDTEVYYCAAVHDRLWYRSAYDYWRQGTQVTVSS,low polyreactivity
7,QVQLVESGGGLVQAGGSLRLSCAASGRILWYNAMGWYRQAPGKERELVAAITSDGSTDYADSVKGRFTISRDNAKNTVYLQMNSLKPEDTAVYYCAKLYIRQYPTWYRYYYWGQGTQVTVSS,high polyreactivity
8,QVQLVESGGGLVQAGGSLRLSCAASGRILYLYTMGWYRQAPGKERELVAAISRGGSTYYADSVKGRFTISRDNAKNTVYLQMNSLKPEDTAVYSCAADARGYQFNYWGQGTQVTVSS,low polyreactivity
9,QVQLVESGGGLVQAGGSLRLSCAASGRILYPYAMGWYRQAPGKERELVAAITFIGGTTYYADSVKGRFTLSRDNAKNTLYLQRNSLKQEDTAVYYCSTAGPYGSRNDYWGQGTQVTVSS,high polyreactivity
10,QVQLVESGGGLVQAGGSLRLSCAASGRILYQYDMGWYRQAPGKERELVASISRSGGRTYYADSVKGRFTISRDNAKNTVYLQMNSLNPEDTAVYYCAAELTYFGYPIDFDSWGQGTQVSVSS,low polyreactivity
11,QVQLVESGGGLVQAGGSLRLSCAASGRILYRYVMGWYRQAPGKERELVAGISWSGGSTYYADSVKGRFTISRDNAKNTVYLQMNSLNPEDTAVYYCNKYIGALGRWGYDYWGQGTQVTVSS,low polyreactivity
12,QVQLVESGGGLVQAGGSLRLSCAASGRILYSYAMGWYRQAPGKERELVAAISSTGSTYYADSVKGRFTISRDNAKNTVYLQMNSLKPEDTAVYYCAATFFPYQVHHYYYWGQGTQVTVSS,low polyreactivity
13,QVQLVESGGGLVQAGGSLRLSCAASGRILYVYVMGWYRQGPGKASELVAAISRRGGGTSYADSVKGLFTISRDNAKNTVYLQLNSLKPEDTTVYYCAASSTEFPTDYLAIDDYWGQGTQVTVSS,low polyreactivity
14,QVQLVESGGGLVQAGGSLRLSCAASGRILYYYAMGWYRQAPGKERELVAAINSSGGSTYYADSVKGRFTISRDNAKNTVYLQMNSLKPEDTAVYYCAALRGIVLWYPPSYFRYDYWGQGTQVTVSS,high polyreactivity
15,QVQLVESGGGLVQAGGSLRLSCAASGRILYYYAMGWYRQAPGKERELVAAINSSGGSTYYADSVKGRFTISRDNAKNTVYLQMNSLKPEDTAVYYCAALRGNVLWYPPSYFRYDYWGQGTQVTVSS,high polyreactivity
16,QVQLVESGGGLVQAGGSLRLSCAASGRIMPFYAMGWYRQAPGKERELVATISWTSDSTYYADSVKGRFTISRDNAKNTVFLQMNSLKPEDTAVYYCAREYTYTYASTVIYDHWGQGTQVTVSS,low polyreactivity
17,QVQLVESGGGLVQAGGSLRLSCAASGRINEYYAMGWYRQAPGKERELVAAISSGGSTYYADSVKGRFTISRDNAKNTVYFQMNSLKPEDTAVYYCAAVYSSYGRRYNSWGQGTQVTVSS,high polyreactivity
18,QVQLVESGGGLVQAGGSLRLSCAASGRIRGNVMGWYRQAPGKERELVAAISKSGGSTYYADSVKGRFTISRDNAKNTVYLQMNSLKPEDTAVYYCAAAYGQYTSYYRFGSWGQGTQVTVSS,high polyreactivity
19,QVQLVESGGGLVQAGGSLRLSCAASGRISGVNAMGWYRQAPGKERELVATISGSGGRTYYADSVKGRFTISRDNAKNTVYLQMNSLKPEDTAVYYCNTLVQRGGYFSRRFDYWGQGTQVTVSS,low polyreactivity
20,QVQLVESGGGLVQAGGSLRLSCAASGRISGYNMGWYRQAPGKERELVAAISNGGSTNYADSVKGRFTISRDNAKNTVYLQMNSLKPEDTAVYYCNRRVPYSFYSRGYYYWGQGTQVTVSS,high polyreactivity
21,QVQLVESGGGLVQAGGSLRLSCAASGRISPKNAMGWYRQAPGKERELVATIRKIGGRTYYADSVKGRFTISRDNAKNTVYLQMNSLKPEDTAVYYCATDFAPSYYPDRFDYRGQGTQVTVSS,low polyreactivity
22,QVQLVESGGGLVQAGGSLRLSCAASGRISPKNAMGWYRQAPGKERELVATIRKIGGRTYYADSVKGRFTISRDNAKNTVYLQMNSLKPEDTAVYYCATDFAPSYYPDRFDYWGQGTQVTVSW,low polyreactivity

row,Sequence,polyreactivity (PSR sort gate)
1,QVQLVESGGGLVQAGGSLRLSCAASGRISPKNAMGWYRQAPGKERELVATIRKIGGRTYYADSVKGRFTISRDNAKNTVYLQMNSLKPEDTAVYYCATDFAQSYYPDRFDYWGQGTQVTVSS,low polyreactivity
2,QVQLVESGGGLVQAGGSLRLSCAASGRISRFYAMGWYRQAPGKERELVAGIRSGDSTNYADSVKGRFTISRDNAKNTVYLQMNSLKPEDTAVYYCAAVVFSDGRYGRANRMYYWGQGTQVTVSS,high polyreactivity
3,QVQLVESGGGLVQAGGSLRLSCAASGRISRGNAMGWYRHAPGKEREFVAAISWSGDGTYYADSVKGRFTISRDNAKNTVYLQMNSLKPEDTAVYYCADGATPRYSKYDYWGQGTQGTVSS,low polyreactivity
4,QVQLVESGGGLVQAGGSLRLSCAASGRISRIYAMGWYRQAPGKERELVAAIRGRGGSTYYADSVKGRFTISRDNAKNTVYLQMNSLKPEVTAVYYCAADGWARYEYWGQGTQVTVSS,high polyreactivity
5,QVQLVESGGGLVQAGGSLRLSCAASGRISRNYAMGWYRQAPGKERELVAAINRGGSTYYADSVKGRFTISRDNAKNTVYLQMNSLKPEDTAVYYCAARYPNQYDYWGQGTQVTVSS,high polyreactivity
6,QVQLVESGGGLVQAGGSLRLSCAASGRISRSNTMGWYRQAPGKERELVAAISRGGGSTYYADSVKGRFTISRDNAKNTVYLQMKSLKPEDTAVYYCAKRSAITGYEYWGQGTQVTVSS,high polyreactivity
7,QVQLVESGGGLVQAGGSLRLSCAASGRISSVYAMGLYRQAPGKERELVAGITWSDARTYYADSVKGRFTISRDNAKNTVYLQMNSLKPEDTAVYYCAADYYYYERDYWGQGTQVTVSS,low polyreactivity
8,QVQLVESGGGLVQAGGSLRLSCAASGRISVANAMGWYIQAPGKERELVARISEGVGSTYYADSVKGRFTISRDTAKNTVYLQMNSLKPEDTAVYYCAAYQDYVYSESLFSVSARMYYWGQGTQVTVSS,low polyreactivity
9,QVQLVESGGGLVQAGGSLRLSCAASGRISVVNAMGWYRQAPGKERELVATINRGGSTYADSVKGRFTISRDNAKNTVYLQMNSLKPEDTAVYYCAARTFRISRMDYWGQGTQVTVSS,high polyreactivity
10,QVQLVESGGGLVQAGGSLRLSCAASGRIVEGNVMGWYRQAPGKERELVAGISSGGSTTYADSVKGRFTISRDNAKNTVYLQMNSLKPEDTAVYYCAASRKRFRHSSYRFYYCGQGTQVTVSS,high polyreactivity
11,QVQLVESGGGLVQAGGSLRLSCAASGRIVKFYDMGWYRQAPGKEREFVAAISRRGSSTYYADSVKGRFTISRDNAKNTVYLQMNSLKPEDTAVYYCAADWTFGAIGYYYWGHGTQVTVSS,high polyreactivity
12,QVQLVESGGGLVQAGGSLRLSCAASGRIVKYAMGWYRQAPGKERELVAAISGSGGTTYYADSVKGRFTISRDNAKNTVYLQMNSLKPEETAVYYCAASRPRPPSSRRMDYWGQGTQVTVSS,high polyreactivity
13,QVQLVESGGGLVQAGGSLRLSCAASGRIVWYAMGWYRQAPGKERELVAAINWSGGSTYYADSVKGRFTISRDNAKNTVYLQMNSLKPEDTAVYYCAADVRNYWLEYEYWGQGTQVTVSS,low polyreactivity
14,QVQLVESGGGLVQAGGSLRLSCAASGRIVYLNAMGWYRQPPGKERELVAAINTSGDSTYYADSVKGRFTISRDNAKNTVYLQMNSLKPVDTAVYYCAAYVIGPDQFIYDYWGQGTQVTVSS,low polyreactivity
15,QVQLVESGGGLVQAGGSLRLSCAASGRIYCKYAMGRYRQAPGKERELVAGISRGAGRTYYADSVKGRFTISRDNAKNTVYLQMNSLKPADTAVSYCAAVPSYHSTSPFYYWGQGTQVTVSS,high polyreactivity
16,QVQLVESGGGLVQAGGSLRLSCAASGRIYGFNTMGWYRQAPGKERELVAAITTSGVSTYYADSVKGRFTISRDNAKNTVYLQMNSLKPEDTAVYYCAARWYRTGPYKRRDYWGQGTQVTVSS,high polyreactivity
17,QVQLVESGGGLVQAGGSLRLSCAASGRIYINNAMGWYRQAPGKDREFVAAITSGGRTYYADSVKGRFTISRDNAKYTVYLQMNSLKPEDTAVYYCAPRYYRQYTRHYGYGYWGQGTQVTVSS,high polyreactivity
18,QVQLVESGGGLVQAGGSLRLSCAASGRIYPYYAMGWYRQAPGKERELVAAITTRGGSTYYADSVKGRFTISRDNAKNTVYLQMNSLKPEDTAVYYCAAVTFGRMEYWGQGTQVTVSS,low polyreactivity
19,QVQLVESGGGLVQAGGSLRLSCAASGRIYPYYDMGSYRPAPGKERELVAAITWNGGSTYYADSVKGRFTISRDYAKNTVYLQMNSLKPEDTAVYYCAVEPYYYGEDYWGQGTQVTVSS,low polyreactivity
20,QVQLVESGGGLVQAGGSLRLSCAASGRIYRYAMGWYRQAPGKERELVAAISGGGGRTYYADSVKGRFTISRDNAKNTFYLQLNSLKPEVTAVYDCAVDPYFYYYGDYYFDYWGQGTQVTVSS,high polyreactivity
21,QVQLVESGGGLVQAGGSLRLSCAASGRIYRYAMGWYRQAPWKERELVASISRRGGSTYYADSVKGRFTISRDNAKNTVYVQMNSLKPEDTALYSCNAYGYSFCYDYWGHGTQVTVSS,high polyreactivity

# — the nanobody polyreactivity screen of Harvey et al. (2022)
